Test results: US20220177587A1, “METHODS AND USES OF VARIANT CD80 FUSION PROTEINS AND RELATED CONSTRUCTS” (Alpine Immune Sciences, Inc., priority 2018, published 2022)
Like-named read-outs stand apart in the source and are kept apart here. One block for each substance: values may come before it.

Columns and labels:
CD28 (human) [1] = biological target: CD28 (human) (UniProt P10747)
PD-L1 (human) [2] = biological target: PD-L1 (human) (UniProt Q9NZQ7)
Target sequence in this assay (Q9NZQ7 19-290 limits assumed): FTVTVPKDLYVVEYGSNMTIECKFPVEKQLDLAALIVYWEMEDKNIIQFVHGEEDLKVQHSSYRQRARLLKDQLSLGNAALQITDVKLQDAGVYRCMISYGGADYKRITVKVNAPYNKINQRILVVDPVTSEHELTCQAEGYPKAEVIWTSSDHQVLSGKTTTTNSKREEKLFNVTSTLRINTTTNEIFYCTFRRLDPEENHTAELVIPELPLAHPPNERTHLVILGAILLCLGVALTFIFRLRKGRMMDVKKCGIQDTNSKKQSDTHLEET

PD-L1 (human) [3] = biological target: PD-L1 (human) (UniProt Q9NZQ7); assay: flow cytometry, MFI on PD-L1 cells over MFI on CD28 cells
Target sequence in this assay (Q9NZQ7 19-290): as the sequence (Q9NZQ7 19-290 limits assumed) above

CD28 (human) [4] = biological target: CD28 (human) (UniProt P10747); assay: flow cytometry, Jurkat cells (CD28)
PD-L1 (human) [5] = biological target: PD-L1 (human) (UniProt Q9NZQ7); assay: flow cytometry, CHO cells stably expressing PD-L1
Target sequence in this assay (Q9NZQ7 19-290): as the sequence (Q9NZQ7 19-290 limits assumed) above

human CTLA-4 (human) [6] = biological target: human CTLA-4 (human) (UniProt P16410); assay: flow cytometry, CHO cells stably expressing CTLA4
Sequence of human CTLA-4 (human) (P16410 36-223): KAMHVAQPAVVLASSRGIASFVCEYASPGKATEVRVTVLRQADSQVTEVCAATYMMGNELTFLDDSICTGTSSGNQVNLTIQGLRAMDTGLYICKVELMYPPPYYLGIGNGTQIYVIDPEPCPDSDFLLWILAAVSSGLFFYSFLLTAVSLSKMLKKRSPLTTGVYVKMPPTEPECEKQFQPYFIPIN

PD-L1 (human) [7] = biological target: PD-L1 (human) (UniProt Q9NZQ7); assay: flow cytometry, CHO cells expressing PD-L1
Target sequence in this assay (Q9NZQ7 19-290): as the sequence (Q9NZQ7 19-290 limits assumed) above

CD28 (human) [8] = biological target: CD28 (human) (UniProt P10747); assay: flow cytometry, Jurkat cells (CD28); remark: listed apart in the source
human CTLA-4 (human) [9] = biological target: human CTLA-4 (human) (UniProt P16410); assay: flow cytometry, CHO cells expressing CTLA4
PD-L1 (human) [10] = biological target: PD-L1 (human) (UniProt Q9NZQ7); assay: flow cytometry, MFI on PD-L1 over MFI on CD28
Target sequence in this assay (Q9NZQ7 19-290): as the sequence (Q9NZQ7 19-290 limits assumed) above

CD28 (human) [11] = biological target: CD28 (human) (UniProt P10747); remark: listed apart in the source
PD-L1 (human) [12] = biological target: PD-L1 (human) (UniProt Q9NZQ7); remark: listed apart in the source
Target sequence in this assay (Q9NZQ7 19-290): as the sequence (Q9NZQ7 19-290 limits assumed) above

CD28 (human) [13] = biological target: CD28 (human) (UniProt P10747); remark: listed apart in the source
PD-L1 (human) [14] = biological target: PD-L1 (human) (UniProt Q9NZQ7); remark: listed apart in the source
Target sequence in this assay (Q9NZQ7 19-290): as the sequence (Q9NZQ7 19-290 limits assumed) above

CD28 (human) [15] = biological target: CD28 (human) (UniProt P10747); assay: flow cytometry, Jurkat/IL2 reporter cells (endogenous CD28)
human CTLA-4 (human) [16] = biological target: human CTLA-4 (human) (UniProt P16410); assay: flow cytometry, CHO cells expressing huCTLA4
PD-L1 (human) [17] = biological target: PD-L1 (human) (UniProt Q9NZQ7); assay: flow cytometry, CHO cells expressing huPD-L1

IL-2 luciferase reporter, fold increase over WT CD80-IgV-Fc at 5.0 nM (CD28 (human) [1]): 2.29 fold | IL-2 luciferase reporter, fold increase over WT CD80-IgV-Fc at 5.0 nM (PD-L1 (human) [2]): 2.29 fold | Ratio of PDL1:CD28 (PD-L1 (human) [3]): 9.4 | Fold change to WT CD80 (CD28 (human) [4]): 60.9 fold | MFI at 33.3 nM (CD28 (human) [4]): 2680 MFI | Fold change to WT CD80 (PD-L1 (human) [5]): 578 fold | MFI at 33.3 nM (PD-L1 (human) [5]): 25200 MFI | Fold change to WT CD80 (human CTLA-4 (human) [6]): 18.3 fold | MFI at 33.3 nM (human CTLA-4 (human) [6]): 24900 MFI
Substance: variant CD80 IgV-Fc H18Y/A26E/E35D/M47L/V68M/D90G (Fc fusion)

IL-2 luciferase reporter, fold increase over WT CD80-IgV-Fc at 5.0 nM (CD28 (human) [1]): 2.34 fold | IL-2 luciferase reporter, fold increase over WT CD80-IgV-Fc at 5.0 nM (PD-L1 (human) [2]): 2.34 fold | Ratio of PDL1:CD28 (PD-L1 (human) [3]): 12.6 | Fold change to WT CD80 (CD28 (human) [4]): 47.9 fold | MFI at 33.3 nM (CD28 (human) [4]): 2100 MFI | Fold change to WT CD80 (PD-L1 (human) [5]): 608 fold | MFI at 33.3 nM (PD-L1 (human) [5]): 26500 MFI | Fold change to WT CD80 (human CTLA-4 (human) [6]): 17.1 fold | MFI at 33.3 nM (human CTLA-4 (human) [6]): 23300 MFI
Substance: variant CD80 IgV-Fc A26E/E35D/V68M/A71G/D90G (Fc fusion)

Fold change to WT CD80 (PD-L1 (human) [7]): 328 fold | MFI at 33.3 nM (PD-L1 (human) [7]): 16900 MFI | Fold change to WT CD80 (CD28 (human) [8]): 48.3 fold | MFI at 33.3 nM (CD28 (human) [8]): 1520 MFI | Fold change to WT CD80 (human CTLA-4 (human) [9]): 9.3 fold | MFI at 33.3 nM (human CTLA-4 (human) [9]): 16200 MFI | Ratio of PDL1:CD28 (PD-L1 (human) [10]): 11.1
Substance: CD80 E35D/M43I/M47L/V68M IgV-Fc (Fc fusion)

IL-2 luciferase reporter, fold increase over WT CD80-IgV-Fc at 5.0 nM (CD28 (human) [1]): 2.42 fold | IL-2 luciferase reporter, fold increase over WT CD80-IgV-Fc at 5.0 nM (PD-L1 (human) [2]): 2.42 fold | Ratio of PDL1:CD28 (PD-L1 (human) [3]): 44.6 | Fold change to WT CD80 (CD28 (human) [4]): 8.6 fold | MFI at 33.3 nM (CD28 (human) [4]): 379 MFI | Fold change to WT CD80 (PD-L1 (human) [5]): 387 fold | MFI at 33.3 nM (PD-L1 (human) [5]): 16900 MFI | Fold change to WT CD80 (human CTLA-4 (human) [6]): 14.2 fold | MFI at 33.3 nM (human CTLA-4 (human) [6]): 19400 MFI
Substance: variant CD80 IgV-Fc H18Y/A26E/E35D/M47L/A71G (Fc fusion)

Jurkat/IL2 reporter RLU at 50 nM, CHO/OKT3/PD-L1 aAPC (CD28 (human) [11]): 695 RLU | Jurkat/IL2 reporter RLU at 50 nM, CHO/OKT3 aAPC without PD-L1 (CD28 (human) [11]): 606 RLU | Jurkat/IL2 reporter RLU at 50 nM, CHO/OKT3/PD-L1 aAPC (PD-L1 (human) [12]): 695 RLU | IL-2 release, primary T cells + K562/OKT3/PD-L1, 100 nM (CD28 (human) [13]): 102 | IL-2 release, primary T cells + K562/OKT3/PD-L1, 100 nM (PD-L1 (human) [14]): 102
Substance: CD80 E23G/A26S/E35D/T62N/A71D/L72V/L85M IgV-Fc (inert) (Fc fusion)

Fold change to WT CD80 (PD-L1 (human) [7]): 250 fold | MFI at 33.3 nM (PD-L1 (human) [7]): 12900 MFI | Fold change to WT CD80 (CD28 (human) [8]): 8.2 fold | MFI at 33.3 nM (CD28 (human) [8]): 257 MFI | Fold change to WT CD80 (human CTLA-4 (human) [9]): 9 fold | MFI at 33.3 nM (human CTLA-4 (human) [9]): 15800 MFI | Ratio of PDL1:CD28 (PD-L1 (human) [10]): 50.1
Substance: CD80 H18Y/V22D/E35D/M47V/N48K/V68M IgV-Fc (Fc fusion)

Fold change to WT CD80 (PD-L1 (human) [7]): 286 fold | MFI at 33.3 nM (PD-L1 (human) [7]): 14800 MFI | Fold change to WT CD80 (CD28 (human) [8]): 0.5 fold | MFI at 33.3 nM (CD28 (human) [8]): 14.5 MFI | Fold change to WT CD80 (human CTLA-4 (human) [9]): 11.7 fold | MFI at 33.3 nM (human CTLA-4 (human) [9]): 20500 MFI | Ratio of PDL1:CD28 (PD-L1 (human) [10]): 1020
Substance: CD80 H18Y/E35D/M47L/V68M/E95V/L97Q IgV-Fc (Fc fusion)

Jurkat/IL2 reporter RLU at 50 nM, CHO/OKT3/PD-L1 aAPC (CD28 (human) [11]): 755 RLU | Jurkat/IL2 reporter RLU at 50 nM, CHO/OKT3 aAPC without PD-L1 (CD28 (human) [11]): 644 RLU | Jurkat/IL2 reporter RLU at 50 nM, CHO/OKT3/PD-L1 aAPC (PD-L1 (human) [12]): 755 RLU
Substance: CD80 A71D/L72V/E95K IgV-Fc (inert) (Fc fusion)

IL-2 luciferase reporter, fold increase over WT CD80-IgV-Fc at 5.0 nM (CD28 (human) [1]): 2.5 fold | IL-2 luciferase reporter, fold increase over WT CD80-IgV-Fc at 5.0 nM (PD-L1 (human) [2]): 2.5 fold | Ratio of PDL1:CD28 (PD-L1 (human) [3]): 10.4 | Fold change to WT CD80 (CD28 (human) [4]): 61.1 fold | MFI at 33.3 nM (CD28 (human) [4]): 2680 MFI | Fold change to WT CD80 (PD-L1 (human) [5]): 639 fold | MFI at 33.3 nM (PD-L1 (human) [5]): 27900 MFI | Fold change to WT CD80 (human CTLA-4 (human) [6]): 13.5 fold | MFI at 33.3 nM (human CTLA-4 (human) [6]): 18300 MFI
Substance: variant CD80 IgV-Fc H18Y/A26E/V68M/A71G/D90G (Fc fusion)

MFI at 33.3 nM (CD28 (human) [15]): 314 MFI | MFI at 33.3 nM (human CTLA-4 (human) [16]): 2950 MFI
Substance: variant CD80 IgV-Fc A26E/E35D/M43I/M47L/L85Q/K86E/R94W (Fc fusion)

MFI at 33.3 nM (CD28 (human) [15]): 282 MFI | MFI at 33.3 nM (PD-L1 (human) [17]): 36100 MFI
Substance: variant CD80 IgV-Fc Q27H/E35D/M47L/L85Q/R94Q/E95K (Fc fusion)

Jurkat/IL2 reporter RLU at 50 nM, CHO/OKT3/PD-L1 aAPC (CD28 (human) [11]): 3780 RLU | Jurkat/IL2 reporter RLU at 50 nM, CHO/OKT3 aAPC without PD-L1 (CD28 (human) [11]): 894 RLU | Jurkat/IL2 reporter RLU at 50 nM, CHO/OKT3/PD-L1 aAPC (PD-L1 (human) [12]): 3780 RLU | IL-2 release, primary T cells + K562/OKT3/PD-L1, 100 nM (CD28 (human) [13]): 8310 | IL-2 release, primary T cells + K562/OKT3/PD-L1, 100 nM (PD-L1 (human) [14]): 8310
Substance: CD80 E35D/M47I IgV-Fc (inert) (Fc fusion)

MFI at 33.3 nM (human CTLA-4 (human) [16]): 8660 MFI | MFI at 33.3 nM (PD-L1 (human) [17]): 36900 MFI
Substance: variant CD80 IgV-Fc E35D/M47I/K54R/L85E (Fc fusion)

Jurkat/IL2 reporter RLU at 50 nM, CHO/OKT3/PD-L1 aAPC (CD28 (human) [11]): 2000 RLU | Jurkat/IL2 reporter RLU at 50 nM, CHO/OKT3 aAPC without PD-L1 (CD28 (human) [11]): 432 RLU | Jurkat/IL2 reporter RLU at 50 nM, CHO/OKT3/PD-L1 aAPC (PD-L1 (human) [12]): 2000 RLU | IL-2 release, primary T cells + K562/OKT3/PD-L1, 100 nM (CD28 (human) [13]): 1460 | IL-2 release, primary T cells + K562/OKT3/PD-L1, 100 nM (PD-L1 (human) [14]): 1460
Substance: CD80 A26E/E35D/M47L/L85Q IgV-Fc (inert) (Fc fusion)

IL-2 luciferase reporter, fold increase over WT CD80-IgV-Fc at 5.0 nM (CD28 (human) [1]): 2.29 fold | IL-2 luciferase reporter, fold increase over WT CD80-IgV-Fc at 5.0 nM (PD-L1 (human) [2]): 2.29 fold | Ratio of PDL1:CD28 (PD-L1 (human) [3]): 39.4 | Fold change to WT CD80 (CD28 (human) [4]): 14.3 fold | MFI at 33.3 nM (CD28 (human) [4]): 626 MFI | Fold change to WT CD80 (PD-L1 (human) [5]): 566 fold | MFI at 33.3 nM (PD-L1 (human) [5]): 24700 MFI | Fold change to WT CD80 (human CTLA-4 (human) [6]): 14.7 fold | MFI at 33.3 nM (human CTLA-4 (human) [6]): 20000 MFI
Substance: variant CD80 IgV-Fc H18Y/A26E/E35D/M47L/V68M (Fc fusion)

MFI at 33.3 nM (CD28 (human) [15]): 258 MFI | MFI at 33.3 nM (PD-L1 (human) [17]): 44400 MFI
Substance: variant CD80 IgV-Fc Q33R/E35D/K37E/M47V/L85Q (Fc fusion)

MFI at 33.3 nM (human CTLA-4 (human) [16]): 28900 MFI | MFI at 33.3 nM (PD-L1 (human) [17]): 62100 MFI
Substance: variant CD80 IgV-Fc Q33L/E35D/M47V/T79A (Fc fusion)
